Test results published in paper PMC3247736.

Tested on: IgM (human)
Assay: QCM
Conditions: 500 mg/L IgM vs 100 ug/L IgE; 5'-biotin; 8.1 mM Na2HPO4, 1.1 mM KH2PO4, 1 mM MgCl2, 2.7 mM KCl, 138 mM NaCl, pH 7.4, 37 C; BSA-blocked avidin-coated gold crystal

## GGGGCACGTTTATCCGTCCCTCCTAGTGGCGTGCCCC [D17.4 anti-IgE aptamer]
  binding signal (% of IgE response): < 5
